Source: paper PMC4934914, “Crystal Structure of Bacillus subtilis Cysteine Desulfurase SufS and Its Dynamic Interaction with Frataxin and Scaffold Protein SufU” (PLoS ONE, 2016)
Each block holds one binder with its values, some of them ahead of it.

B1: Bacillus subtilis scaffold protein SufU (natural protein)
chain: MSFNANLDTLYRQVIMDHYKNPRNKGVLNDSIVVDMNNPTCGDRIRLTMKLDGDIVEDAKFEGEGCSISMASASMMTQAIKGKDIETALSMSKIFSDMMQGKEYDDSIDLGDIEALQGVSKFPARIKCATLSWKALEKGVAKEEGGN
notes: Fe-S cluster scaffold protein SufU of Bacillus subtilis; also called BsSufU
B2: Bacillus subtilis cysteine desulfurase SufS (enzyme)
chain: MNITDIREQFPILHQQVNGHDLVYLDSAATSQKPRAVIETLDKYYNQYNSNVHRGVHTLGTRATDGYEGAREKVRKFINAKSMAEIIFTKGTTTSLNMVALSYARANLKPGDEVVITYMEHHANIIPWQQAVKATGATLKYIPLQEDGTISLEDVRETVTSNTKIVAVSHVSNVLGTVNPIKEMAKIAHDNGAVIVVDGAQSTPHMKIDVQDLDCDFFALSSHKMCGPTGVGVLYGKKALLENMEPAEFGGEMIDFVGLYESTWKELPWKFEAGTPIIAGAIGLGAAIDFLEEIGLDEISRHEHKLAAYALERFRQLDGVTVYGPEERAGLVTFNLDDVHPHDVATVLDAEGIAVRAGHHCAQPLMKWLDVTATARASFYLYNTEEEIDKLVEALQKTKEYFTNVF
modifications: pyridoxal-5'-phosphate bound to Lys224 as an aldimine; Cys361-persulfide (in the crystal)
notes: cysteine desulfurase SufS of Bacillus subtilis; The structure 'could be built to completeness'; also called BsSufS

Columns and labels:
[1] = target: B2; assay: HDX-MS; 60 μM of each component in 25 mM Tris-Cl pH 7.5, 100 mM NaCl; exchange in D2O buffer at 25°C for 15, 30, 60 or 600 s; online pepsin digestion; conditions: both partners purified
[2] = target: the molecule itself; assay: crystal structure; BsSufS crystallised at 20 mg/ml in 0.1 M HEPES pH 7.5, 50% (v/v) PEG 400, 20°C; one molecule in the asymmetric unit, homodimer across the crystallographic symmetry axis; 1.7 Å
[3] = target: B2; assay: MST; labelled BsFra (0.25 μM) mixed 1:1 with a dilution series of the partner (560 μM to 0.030 μM); 25 mM Tris-Cl, 100 mM NaCl, 10 mM 2-mercaptoethanol, pH 7.5; 25°C; Hill model; average of three measurements; conditions: both partners purified
[4] = target: B1; assay: as above; conditions: both partners purified
[5] = target: T1, BsSufS/BsSufU complex (Bacillus subtilis, UniProt O32164 1-406; O32163 1-147); assay: as above; conditions: both partners purified
T1 construct: cysteine desulfurase SufS of Bacillus subtilis, as the chain of m1; scaffold protein SufU of Bacillus subtilis, as the chain of m2; SufS is described as a homodimer; also called BsSufU/BsSufS; SufS/SufU complex; copies: 2 +

[6] = target: B1; assay: HDX-MS; 60 μM of each component in 25 mM Tris-Cl pH 7.5, 100 mM NaCl; exchange in D2O buffer at 25°C for 15, 30, 60 or 600 s; online pepsin digestion; conditions: both partners purified

Binder: B1
binding result [1]: binds

Binder: B2
stoichiometry N [2]: 2

Kd [3]: 50.6 ± 17.4 µM
Kd [4]: 57.4 ± 13.8 µM
Kd [5]: 32.5 ± 3.6 µM
B3: fluorophore-labelled BsFra (natural protein, Bacillus subtilis)
chain: MDVFSEYLAGIADPFHRERTEEVLTWIKNKYPNLHTEIKWNQPMFTDHGTFIIGFSVSKKHLAVAPEKVTIAHVEDDIVKAGYDYTEQLIRIPWNGPVDYTLLEKMIEFNILDKADCSTFWRK
modifications: labelled with the Monolith NT.115 Protein Labeling Kit RED MALEIMID (cysteine-reactive)
notes: frataxin homolog Fra (formerly YdhG) of Bacillus subtilis, as the chain of m3; Same protein as m3, with a red fluorophore on cysteine for MST; also called labeled BsFra; fluorophore-tagged frataxin

binding result [1]: binds
binding result [6]: binds
B4: Bacillus subtilis frataxin homolog Fra (natural protein)
chain: MDVFSEYLAGIADPFHRERTEEVLTWIKNKYPNLHTEIKWNQPMFTDHGTFIIGFSVSKKHLAVAPEKVTIAHVEDDIVKAGYDYTEQLIRIPWNGPVDYTLLEKMIEFNILDKADCSTFWRK
notes: frataxin homolog Fra (formerly YdhG) of Bacillus subtilis; Unlabelled form, used in H/DX and activity assays; also called BsFra; YdhG (former name)
